The record followed here is the nanobody polyreactivity screen of Harvey et al. (2022).

A short description of the series: yeast display, Sf9 membrane polyspecificity reagent, FACS + sequencing; frameworks hold sequencing errors. In short, it runs like this: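 Nanobodies from a synthetic yeast display library (Saccharomyces cerevisiae BJ5465), induced 36–48 hours with galactose, were stained 1 hour at 4 °C with 10% biotinylated, detergent-solubilized Sf9 membrane reagent, enriched on streptavidin microbeads, then FACS-sorted. Anti-HA (expression) and streptavidin (reagent binding) fluorescence set low and high (top ~1%) gates. Polyreactivity labels come from the gate of origin. Genes were colony-PCR amplified, MiSeq 2 × 250 sequenced and filtered by CDR length.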
Consider “QVQLVESGVGLVQAGGTLRLSCAASGFIFRKYGMGWYRQAPGKERELVAAIRFTGGSTRYADSVKGRFTISRDNAKNTVYLQMNSLIPEDTAVYYCNADRVYVRGRFTYDYWGQGTQVTVSS”, for which the “polyreactivity (PSR sort gate)” value is “low polyreactivity”.

Take “QVQLVESGGGLVQAGGSLRLSCAASGSTSGIYAMGWYRQAHGKERELVAAIDTSGGSTYADSVKGRFTISRDNAKNTVYLQMNSLKPEETAVYYCAKPFSSNSWSHGYWGQGTQVTVSS”: the “polyreactivity (PSR sort gate)” value is “low polyreactivity”. The result for “QVQLVESGGGLVQAGGSLRLSCAASGRTFAVYAMGWYRQAPGKERELVAAISRRGGSTYYADSVKGRFTISRDNAKNTVYLQMNSLKPEDTAVYYCATDNSQSTYPYDYWGQGTQVTVSS” reads “high polyreactivity”; that for “QVQLVESGGGLVQAGGSLRLSCAASGITFVFNVMGWSRQAPGKERELVADIRSGGTTNYADSVKGRFTISRDNAKNTVYIQMNSLKPEDTAVYYCAKEKYDYVGDYEVDYWGQGTQVTVSS”, “low polyreactivity”. As for “QVQLVESAGGLVQAGGSLRLSCAASGSTFSYNAMGWYRQAPGKEREFVAAISSRGGNTFYADSVKGRFTISRDNAKNTVYLQMNSLKPEDTAVYYCAARFNRPYDYWGQGTQVTVSS”, the “polyreactivity (PSR sort gate)” value was “low polyreactivity”. The result for “QVQLVESAGGLVQAGGSLRLSCAASGSIFPFYAMRWYRQAPGKERELVATINFSGGSTYYADSVKGRFTISRDNAKNTVYLQMNSLKPEDTAVYYCAASYGAKYIVLYDYWGQGTQVTVSS” reads “low polyreactivity”. With “QVQLVESGGGLVQAGGSLRLICAASGSTFQSYAMGWYRQAPGKERELVAAISARGGTTYYADSVKGRFTISRDNAKNTVYLQMNSLKPEDTAVYYCAAVDHSVYSGSPDTGESDYWGQGTQVTVSS”, the “polyreactivity (PSR sort gate)” value is given as “low polyreactivity”. With “QVQLVESGGGLVQAGGSLRLSCASSGLTFHFYTMGWYRQAPGKERELVASITSGGITYYADSVKGRFTISRDNAKNTVYLQMNSLKPEDTAVYYCAATYQFIYTDFDYWGQGTQVTVSS”, the “polyreactivity (PSR sort gate)” value was “high polyreactivity”.

On to “QVQRVESGGGLVQAGGSLRLSSAACGRIFSTYAMGRYRQAPGKERDLVPAIDWDGGGTYYADSVKGRFTISRDNAKNTVYLQMNSLKPEDTAVYYCAAETDLANGTSPSDYWGQGTQVTVSS”, for which the “polyreactivity (PSR sort gate)” value is “low polyreactivity”. Turning to “QVQLQESGCGLVQAGGSLRLTCAASGSISYPRTMGWSRQAPGKEREFVAGIGVGGTTYYADSVIGRFTISRDNAKNTVYLQMNSLKPEDTAVYYCAVYSGDDYYHDYWGQGTQVTVSS”, the “polyreactivity (PSR sort gate)” value is on record as “low polyreactivity”.

For “QVQLVESGGGLVQAGGSLRLSCAASGPIFKRNDMGWYRQSHGKERELVAAISGSGGRTYYADSLKGRFTISRDNAKNTVYLQMNSLKPEDTAVYYCNAGGSYYARGMDYWGQGTQVTVSS”, the “polyreactivity (PSR sort gate)” value was “high polyreactivity”. For the sequence “QVQLVESGGGLVQAGGSLRLSCAASGRIFGYYGMGWYRPAPGKERELVAAITYRGGSTYYADSVKGRFTISRDNAKNTVYLQMNSLKPEDTAVYYCAADGYSHYPYLYDYWGQGTQVTVSS”, the “polyreactivity (PSR sort gate)” value is reported as “low polyreactivity”. Turning to “QFQLVESGGGLVQAGGSLRLSCAASGRIYGYYALGWYRQAPGQERELVATITFGGGSTYYTDSVKGRFTISRDNAKNTVSLQMNSLKPEDTALYYCAADSGYLGIYGDEYSWGHGTQVTVSS”, the “polyreactivity (PSR sort gate)” value was “low polyreactivity”.

As to “QVQLVESGGGLVQAGGSLRLSCAASGFIFRYYAMGWSRQAPGIEMELVAAINASGGRTYYADSVKGRFTISRDNARNTVYLQMNSLKPEDTAVYYCAAYRSYQTFDYWGQGTQVTVSS”, the “polyreactivity (PSR sort gate)” value was “high polyreactivity”. The value for “QVQLVESGGGLVQAGGSLRLSCAASGLTFSPYAKGWYRQAPGKERELVASITNGGRTYYADSVKGRFTISRDNAKNTVYLQMNSLKPEDTAVYYCNAAYFGWFNTYNYWGQGTQVTVSS” was “high polyreactivity”; that for “QVQLVESGGGLVQAGGSLRLSCAASGIIFAGNAMGWYRQEPGKERELVAAISSGTTTNYADSVKGRFTISRDNAKNTVYLQMNSLKPEDTAVYYCAADDFPYKSDYWGQGTQVTVSS” was “low polyreactivity”; that for “QVQLVESGGGLVQAGGSLRLSCAASGSTFYVNAMGSYRQAPGQERELVAAIRSSAGNTTYADSVKGRFTISRDNAKNTVYLQMNSLKPEETAVYYCAADSRPYLRDYWGQGTQVTVSS” was “low polyreactivity”. Consider “QVQLVESGGGLVQAGGSLRLSCAASGSTFNRYAMGWYRQAPGKERELVAAISWNGGSTYYADSVKGRFTSSRDNAKNTVYLQMNSLKPEDTAVYYCATLVRKYDGFNYWGQGTQVTVSS”, for which the “polyreactivity (PSR sort gate)” value is “high polyreactivity”. On to “QVQLVESGGGLVQAGGSLRLSCAASGRTCDIYAMGWYRQAPGKERELVAAISSGGSTYYADSVKGRFTISRDNAKNTVYLQMNSLKPEDTAVYYCAVRWYDQVSRRGIGYYWGQGTLVTVSS”, for which the “polyreactivity (PSR sort gate)” value was “low polyreactivity”. As for “QVQLVESGGGSVQAGGSLRLSCAASGSTFQTNAMGWYRQAPGKERELVAAISRTGGRTYYADSVKGRFTISRDNAKNTVYLQMNSLKPEDTAVYYCAASAWIRYNNRDGYGYWGQGTQVTVSS”, the “polyreactivity (PSR sort gate)” value is “high polyreactivity”. The result for “QVQLVESGGGLVQAGGSLRLSCADSGFISDWYAMGWYRQAPGKERELVATIDWIGGSTYADSVKGRFTISRDNAKNTVYLQMNSMKPEDTAVYYCNAYAFDSVREEDYWGQGTQVTVSS” reads “low polyreactivity”; that for “QVQHVESGGGLVQAVGSLRLSSAASGSTIRYYAMGWYRQAPGKERELVASISSSGGSTFYADSVKGRFTISRDNAKNSVYLQMNSLKPEDTAVYYCARRYHYNMDYWGQGTQVTVSS”, “high polyreactivity”. As for “QVQLVESGGGLVQAGGSLRLSCAASGRIFVDNAMGWYRQAPGKESELVADITSGGSTYYADSVKGRFTISRDNAKNTVYLQMNSLKPEDTAVYYCAADYRVSSDYRYDYWGQGTQVTVSS”, the “polyreactivity (PSR sort gate)” value is given as “low polyreactivity”. Take “QVHLVESGGGLVQAGGSLRLSCAATGSTFPYNTMGWYRQAPGKERELVAAISSSGGSTYYADSVKGRFTISRDNAKNSVYLQRKSLKPEENAVYYCKAQIVASYQARRYYYWGQGTQVTVSS”: the “polyreactivity (PSR sort gate)” value is listed as “low polyreactivity”. Turning to “QVQLVESGGGLVQAGGSLRLSCAASGRTFYRNAMGWYRQAPGKEREFVASIDWSGGSTYYADSVKGRFTISRDNAKNTVYLQMNSLKPEDTAVYYCAAELDYFPGYDYWGQGTQVTVSS”, the “polyreactivity (PSR sort gate)” value was “low polyreactivity”. The value for “QVQLVESGGGLVQAGGSLRLSCAASGRTFSGYAMGWYRQAPGKEREFVAAITSSGGSTYYADSVKGRFTISRDNAKNTVYLQMNSLKPEDTAVYYCAARIRHFSVGYYYWGQGTQVTVSS” was “high polyreactivity”; that for “QVQLVESGGGLVQAGGSLRLSCAASGRIFGYNDMGWYRQAPGKERELVAAINRTGGSTYYADSVKGRFTISRDNGKNTVYLQMNSLKPEDTAVYYCNAVARTKWVQTHTDFITDYDYWGQGTQVTVSS” was “low polyreactivity”. For the sequence “QVQLVESGGGLVQAGGSLRLSCAASGITSRQYAMGWYRQAPGKERELVAAISFSGGRTYYADSVKGRFTISRDNAKNTVYLQMNSLKPEVTAVYYCATRNRYSPRDYWGQGTQVTVSS”, the “polyreactivity (PSR sort gate)” value was “high polyreactivity”.

As for “QVQIVDSGGGLVHAGGSLRLSCADSGSIFSGNAKAWYIQATGKERELVAAISRSGGSTYYADSVKGRFTISRDNAKNTVYLQMNSLKPEDTAVYYCNAGRYRAGGWGVGEGYWGQGTQVTVSS”, the “polyreactivity (PSR sort gate)” value is “high polyreactivity”. On to “QVQLVESGGGLVQAGGSLRLSCAASGRIFVIYGMGWYRQAPGKERELVATISWSGSSTSYADSVKGRFTISRDNAKNTVYLQMNSLKPEDTAVYYCAAYTWYSRHRMNYWGQGTQVTVSS”, for which the “polyreactivity (PSR sort gate)” value is given as “high polyreactivity”. On to “QVQHVESGGGLVQAGGSLRLSCAASGRIFPAYAMGWYRQATGKERELVATISSTGSRSYYADSVKGRFTISRDNAKNTVYLQMNSLKPEDTAVYYCAARQRYKVGGLYGVDYWGQGTQVTVSS”, for which the “polyreactivity (PSR sort gate)” value is “high polyreactivity”. On to “QVQLVESGGGLVQAGGSLRLSCAASGSIFKQYAMGWYRQAPGKERELVARITGSGGSTYYADSVKGRFTISRDNAKNTVYLQMNSLKPEDTAVYYCATKRYARSSGGYDYWGQGTQVTVSS”, for which the “polyreactivity (PSR sort gate)” value is “low polyreactivity”.

As for “QVQLVESGGGLVQAGGSLRLSCAASGLIFAYYTMGWYRQAPGKERELVAAITSGVRTYYADSVKGRFTISRDNAKNTVYLQMNSLKPEDTAVYYCAAGLSGSTQATIFWGYYYWGQGTQVTVSS”, the “polyreactivity (PSR sort gate)” value is reported as “low polyreactivity”. The result for “QVQLVESGGGLVQAGGSLRLSCAASGRTFPSYTMGWYRQAPGKERELVAPNDGGGDTYYADSVKGRFTISRDNAKNSVYLQMKSLKPEDTAVYYCRDWYPSYWYYYYAEYDYWGQGTQVTVSS” reads “high polyreactivity”; that for “QVQLVESGGGLVQAGGSLRLSCAASGFIFTYYAMGWYRQAPGKERELVAAISRIGGSTYYADSVKGRFTISRDNAKYTVYLQMNSLKPEDTAVYYCARYSWPLNKLAVDYWGQGTQVTVSS”, “high polyreactivity”.

For the sequence “QVQLVESGGGLVQAGGSLRLSCAASGFTFRIYAMGWYRQAPGKERELVAAISWAGGSTFYADSVKGRFTISRDNAKNTVYLQMNSLKPEDTAVYYCAADTAFHYDYWGQGTQVTVSS”, the “polyreactivity (PSR sort gate)” value is “low polyreactivity”.

As to “QVQIVESGGGLVQAGGSLRISCAASGFIFNRYAMGWYRQAPGTERELVADITGGSTYFADSVKGRFTISRDNAKNTVYLLMKSLKPEDTAVYYCAADVLRISTLLFRGPGFDYWGQGTQVTVSS”, the “polyreactivity (PSR sort gate)” value is “low polyreactivity”.

With “QVQLVESGGGIVQAGGSLRLSCAASGSIFDSNAMGWYRQAPGKERELVAAITGSGTSTYYADSVKGRFTISRDNAKNTVYLQMNSLKPEDTAVYYCAAAPEYLTDHDYWGQGTQVTVSS”, the “polyreactivity (PSR sort gate)” value is on record as “low polyreactivity”. Take “QVQLQESGGGLMQAGGSQRLSCAASGSISYYSDMCWYRQAPGKEREFVAGIGYGTTTNYADSVKGRFTTSRDNAKNTVYLQMISMKPEDTAVYYCAAYQGNGYEFYYWGQGTQVTVRS”: the “polyreactivity (PSR sort gate)” value is “low polyreactivity”. Turning to “QVQLVESGGGLVQAGGSLRLSCAASGRTFRAYAMGWYRQAPGKERELVAAISRSGGRTYYADSVKGRFIISRDNAKITVYLQMNSLKPEDTAVYYCAAGSNIWGQGTQVTVSS”, the “polyreactivity (PSR sort gate)” value is “high polyreactivity”. The value for “QVQLLESGGGLVQAGGSLRLSCAASGSTFLYNAMGWYRQAPGKERELVAGIRRSGGSTYYADSVKGRFTISRDNAMNTVYLQMNSLKPEDTAVYYCNTDRTLSYQYGGYDYWGQGTQVTVSS” was “low polyreactivity”.
